Data set [1] has as its target class F flavodiiron protein 3 from Trichomonas vaginalis (TvFDPF3) (Trichomonas vaginalis). The experiment in a line: cryo-EM structure; single-particle cryo-EM of holoTvFDPF3 at 0.8 mg/ml in buffer E (50 mM Hepes-NaOH pH 7.5, 150 mM NaCl); map without symmetry 6.6 Å, C2-symmetric map 6.8 Å; homology models of the domains docked into the density.
The target of data set [2] is T1, TvFDPF3 (holoTvFDPF3) (Trichomonas vaginalis, UniProt A2E972).
T1 construct: gene TVAG_121610; full length, 871 residues, C-terminal His6 (pET30a, E. coli BL21 Star DE3), ~100 kDa on SDS-PAGE; FDP-core head-to-tail dimer; holo preparation with full FAD/FMN
T1 sequence (A2E972 1-871): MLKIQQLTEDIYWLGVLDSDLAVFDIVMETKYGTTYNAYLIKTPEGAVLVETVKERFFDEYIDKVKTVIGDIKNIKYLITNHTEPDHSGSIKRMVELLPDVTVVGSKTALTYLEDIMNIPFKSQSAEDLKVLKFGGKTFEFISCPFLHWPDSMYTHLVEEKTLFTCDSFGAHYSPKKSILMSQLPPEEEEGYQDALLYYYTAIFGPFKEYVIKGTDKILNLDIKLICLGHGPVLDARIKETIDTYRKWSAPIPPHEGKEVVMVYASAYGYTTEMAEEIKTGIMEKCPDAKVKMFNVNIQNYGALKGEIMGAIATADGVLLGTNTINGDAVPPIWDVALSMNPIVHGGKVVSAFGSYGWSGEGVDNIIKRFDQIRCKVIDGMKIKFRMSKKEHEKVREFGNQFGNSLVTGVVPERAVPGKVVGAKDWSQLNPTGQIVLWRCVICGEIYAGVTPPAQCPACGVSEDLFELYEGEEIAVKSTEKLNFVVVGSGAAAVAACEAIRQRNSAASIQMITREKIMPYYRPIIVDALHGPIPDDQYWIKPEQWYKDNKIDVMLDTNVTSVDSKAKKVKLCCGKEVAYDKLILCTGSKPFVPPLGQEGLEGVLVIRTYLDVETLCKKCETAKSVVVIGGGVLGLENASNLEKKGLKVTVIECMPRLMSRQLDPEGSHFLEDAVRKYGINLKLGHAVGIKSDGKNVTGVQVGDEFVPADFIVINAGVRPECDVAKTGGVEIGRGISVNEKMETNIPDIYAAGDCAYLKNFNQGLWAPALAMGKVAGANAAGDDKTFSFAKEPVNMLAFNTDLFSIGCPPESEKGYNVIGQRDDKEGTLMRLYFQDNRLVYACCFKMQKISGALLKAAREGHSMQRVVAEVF
Nature of the data set: LC-MS quantification of bound flavin. Type of data set: binding. The following applies: co-purified cofactor, FDP domain. From the text:
LC-MS quantification of bound flavin on TvFDPF3 (holoTvFDPF3)

Data set [3] deals with T1, TvFDPF3 (holoTvFDPF3). The experiment in a line: anaerobic UV-visible titration, charge-transfer band at […] nm. The class given is binding.
Substrate in data set [4]: NC(=O)C1=CN([C@@H]2O[C@H](COP(=O)(O)OP(=O)(O)OC[C@H]3O[C@@H](n4cnc5c(N)ncnc54)[C@H](OP(=O)(O)O)[C@@H]3O)[C@@H](O)[C@H]2O)C=CC1
Nature of the data set: purified protein. Type of data set: biochemical, Trichomonas vaginalis. As to conditions: O2 of air-saturated buffer, 50 mM Hepes-NaOH pH 7.5, 150 mM NaCl, 37 °C.

Substrate in data set [5]: NC(=O)C1=CN([C@@H]2O[C@H](COP(=O)(O)OP(=O)(O)OC[C@H]3O[C@@H](n4cnc5c(N)ncnc54)[C@H](O)[C@@H]3O)[C@@H](O)[C@H]2O)C=CC1
The experiment in a line: purified protein. As to conditions: O2 of air-saturated buffer, 50 mM Hepes-NaOH pH 7.5, 150 mM NaCl, 37 °C. The class given is biochemical, Trichomonas vaginalis.

Where [6] appears, read: preparation with 0.32 FAD and 0.009 FMN per monomer, NAD(P)H tested 0.5-600 μM.
Setting [7] is: preparation with 0.32 FAD and 0.009 FMN per monomer, kcat per monomer, NAD(P)H tested 0.5-600 μM.
The mark [8] stands for this setting: preparation with 0.32 FAD and 0.009 FMN per monomer.
Where [9] appears, read: preparation with 0.32 FAD and 0.009 FMN per monomer, kcat per monomer.
Setting [10] is: preparation with about 1% FMN, kcat per monomer, NAD(P)H tested 0.5-600 μM.
[11] abbreviates: preparation with about 1% FMN, kcat per monomer.
Where [12] appears, read: holoTvFDPF3 (full FAD and FMN), kcat per monomer.

Six molecules from article PMC9364112, “A natural fusion of flavodiiron, rubredoxin, and rubredoxin oxidoreductase domains is a self-sufficient water-forming oxidase of Trichomonas vaginalis” (The Journal of Biological Chemistry, 2022) can be followed below.

Molecule “class F flavodiiron protein 3 from Trichomonas vaginalis (TvFDPF3) (enzyme)” yielded a stoichiometry N in data set [1] of 2.
`Cc1cc2nc3c(=O)[nH]c(=O)nc-3n(C[C@H](O)[C@H](O)[C@H](O)COP(=O)(O)O)c2cc1C` [FMN]: on TvFDPF3 (holoTvFDPF3) [2], the “FMN per protein monomer” value is given as 0.92 ± 0.09 mol per mol monomer.
On TvFDPF3 (holoTvFDPF3) [3], `NC(=O)c1ccc[n+]([C@@H]2O[C@H](COP(=O)(O)OP(=O)(O)OC[C@H]3O[C@@H](n4cnc5c(N)ncnc54)[C@H](O)[C@@H]3O)[C@@H](O)[C@H]2O)c1` [NAD^+] yielded a dissociation constant (Kd) of roughly 130 nM.

B1: TvFDPF2 (Trichomonas vaginalis G3) (protein)
chain: MLKIQQLTEDIYWLGVLDSNLAVFDIIMETKYGTTYNAYLIKTPEGAVLVETVKETFFDEYIEKVKSVIGDIHKIKYLITNHTEPDHSGSIKKMIELIPDLTVVGSKTALTYLEDIVNIPFKGHSAEDLKVLKFGGKSFEFISCPFLHWPDSMYTWVPEEKTLFTCDSFGAHYSPKKSILMSQLPPEEEEGYQDALLYYYTAIFGPFKEYVIKGTDKILNLDIKLVGLGHGPVLDARIKETIDTYRKWSAPLPTHEGKEVVMVYASAYGYTTEMAEEIKAGILAKIPDAKIKMFNVNIQNYGGLKGEIMNAIATADGVLLGTNTINGDAVPPVWDVALSMNPIVHGGKIVTAFGSYGWSGEGVDNIIARFDQIRCKVIDGCKIKFRMSKKEHGKVNEFGQQFGEALITGKVPERAVPGKVVGAKDWSELNPTGAVVLWRCVICGEIYAGVTPPLQCPACGVGQDLFELYEAEQVTHKSTEPLNYVIVGSGAAAVASIEAIRARNAVAKITMISREKVMPYYRPIIVDALNAEIAPDKYFLKNEEWYKENKIEIKLDTSVTAIDTKAKKVKLCRGDELAYDKLILATGSRPFIPPIGHEGLSGVIVIRTSADVDQLKAACQTAKKAVVIGGGVLGLENASAIKEKGVAVTVVECMPRLMARQLDTEASAVLLEEVKKFGVDVRLGMTVSIKGDGKHVTGVQVGEEFIPADFVVVNAGVRAESEVAAAAGIKCGRGIIVNNKMETNVPDVYAAGDCAFLDNMNQGLWAPALAMGKVAGANACGDNKTFAFAIEPVSMIAMGTDLFACGNPPESAQGYNVVSQKDDKEGSAIKLYFKDNRLVYAAGFRIQKISGSLLKGVREGRSLERIMAEIF
notes: full length, 871 residues, C-terminal His6 (pET30a, E. coli BL21 Star DE3); aggregation-prone; poor FAD and FMN occupancy
B1: in “purified protein [4]” (setting [6]), the kcat was determined as 1.7 ± 0.3 s⁻¹ and the catalytic efficiency (kcat/Km) came out at 1400 ± 300 M⁻¹ s⁻¹. Also, in the data set “purified protein [4]” (setting [7]), the Michaelis constant (Km) is 1171 ± 208 µM and the Vmax turned out to be 1.1 µmol/min/mg. In addition, in “purified protein [5]” (setting [8]), the catalytic constant (kcat) was determined as 9.6 ± 0.3 s⁻¹ and the catalytic efficiency (kcat/Km) is 530000 ± 60000 M⁻¹ s⁻¹. In “purified protein [5]” (setting [9]), the Km stood at 18 ± 2 µM and the Vmax was 6.1 µmol/min/mg.

B2: TvFDPF1 (Trichomonas vaginalis G3) (protein)
chain: MLKIQQLTEDIYWLGALDPTLAVFDIIMETKYGTTYNAYMIKTPAGAVLVETVKECFFEEYIEKVKSVIGDINNIKYLITNHTEPDHSGSIKKIIEIIPGLTVIGSKTALTYLEDIVNIPFRGHSAEDLKALKFGGKTFEFISCPFLHWPDSMYTWLPEEQALFTCDSFGAHYSPKKSILMSELPPEEEDGYQEALLYYYTAIFGPFKDFVIKGTDKILDLDIKIICLGHGPVLDARVQETIDTYRKWSEPALPHPGIEVVMVYASAYGYTTEMAEEIKNGILDKIPDASVKMYNVNIQNYGGMKADIMNSIATADGVLLGTNTINGDAVPPIWDVALSMNPIVHGGKIVTAFGSYGWSGEGVDNIINRFDKIRCKVVEPIKIKFRMSKKEHKQVREFGRRFADCLESGEVPDRAVPGRVVGAKDWSELNPTGAIVLWRCVICGEIYAGVTPPLVCPACGVGQDLFELYEAEEVTCSSFENLKFVVVGSGAAAVSAIDAIRARNTVASITMLTREKIMPYYRPIIVDALNSEISPENYYLKNEDWYTENNITVKLGTTVKSIDTARKSLTLSDGSTMQYDRLILATGSRPFVPPIGHEGLTGVYVIRTSNDVELLKETCKTAKKAVVIGGGVLGLENASAIKDRGLSVTVVECMPRLMARQLDPEASEILQGFVRDYGVDLRMGQCVVIKGDGKKVTGVQVGDEFISADFVVVNAGVRAESEVAAAAGIECSRGITVNNKMETSAQDVYAAGDCAYMENINQGLWAPALAMGKVAGANAAGDSKTFHFSIEPVNMIAMGTDLFAVGIPPDSPKGYNVISQRDEKEGTAIKLYFKDNRLVYAAGFKCQKQSGFLLKGVRNGHTLQHVLAELF
notes: full length, 871 residues, C-terminal His6 (pET30a, E. coli BL21 Star DE3); 272 kDa by gel filtration
Consider B2, for which, in “purified protein [4]” (setting [10]), the Km is 1475 ± 486 µM, the Vmax was 4.9 µmol/min/mg, the turnover number (kcat) stood at 7.8 ± 3.3 s⁻¹ and the specificity constant (kcat/Km) came to 5200 ± 2800 M⁻¹ s⁻¹. Moreover, in “purified protein [5]” (setting [11]), the Km is 2.9 ± 0.8 µM, the Vmax worked out at 4.9 µmol/min/mg, the kcat is 7.8 ± 1.9 s⁻¹ and the kcat/Km is 2.6e+06 ± 900000 M⁻¹ s⁻¹.

B3: TvFDPF3 (holoTvFDPF3) (Trichomonas vaginalis G3) (protein)
chain: T1 sequence (A2E972 1-871)
notes: full length, 871 residues, C-terminal His6 (pET30a, E. coli BL21 Star DE3), ~100 kDa on SDS-PAGE; FDP-core head-to-tail dimer; holo preparation with full FAD/FMN
B3: in the data set “purified protein [4]” (setting [12]), the Km was found to be 427 ± 160 µM, the Vmax came to 11 µmol/min/mg, the turnover number (kcat) was determined as 18 ± 6 s⁻¹ and the specificity constant (kcat/Km) was 41000 ± 21000 M⁻¹ s⁻¹. For the same molecule, in the data set “purified protein [5]” (setting [12]), the Michaelis-Menten constant (Km) was determined as 56 ± 2 µM, the Vmax was determined as 291 µmol/min/mg, the turnover number (kcat) was found to be 466 ± 42 s⁻¹ and the specificity constant (kcat/Km) amounted to 8.3e+06 ± 800000 M⁻¹ s⁻¹.
